Consider ten molecules from article PMC314469, “Protein Interaction Networks by Proteome Peptide Scanning” (PLoS Biology, 2004).

Common to all, as to assay: SPOT array
For test [1], the target named is T1, Boi1 SH3 (BOI1_YEAST), P38041.
T1 chain: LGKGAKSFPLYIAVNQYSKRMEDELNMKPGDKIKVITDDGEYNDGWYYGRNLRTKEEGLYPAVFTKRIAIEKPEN

Test [2] deals with T2, Boi2 SH3 (BOI2_YEAST), P39969.
T2 chain: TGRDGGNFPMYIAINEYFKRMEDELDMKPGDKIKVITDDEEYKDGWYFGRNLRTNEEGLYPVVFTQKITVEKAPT

Test [3] deals with T3, Myo5 SH3 (MYO5_YEAST), Q04439.
T3 chain: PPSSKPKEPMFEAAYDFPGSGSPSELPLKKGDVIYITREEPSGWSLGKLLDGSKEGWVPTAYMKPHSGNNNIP

Test [4] has as its target T4, Rvs167 SH3 (RV167_YEAST), P39743.
T4 chain: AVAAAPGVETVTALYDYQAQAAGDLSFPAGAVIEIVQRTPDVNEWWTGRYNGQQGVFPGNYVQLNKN

In test [5] the target is Sho1 SH3 (SHO1_YEAST), P40073.
Sho1 SH3 (SHO1_YEAST), P40073, sequence (P40073 295-366): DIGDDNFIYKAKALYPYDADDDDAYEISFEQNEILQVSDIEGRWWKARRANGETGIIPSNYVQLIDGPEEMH
Test [6] addresses T5, Yfr024 SH3 (LSB3_YEAST), P43603.
T5 chain: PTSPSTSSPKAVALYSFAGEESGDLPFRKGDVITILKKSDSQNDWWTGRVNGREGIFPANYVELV

Test [7] deals with T6, Yhr016c SH3 (YSC84_YEAST), P32793.
T6 chain: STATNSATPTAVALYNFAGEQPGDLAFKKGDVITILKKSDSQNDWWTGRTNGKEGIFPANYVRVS

In test [8] the target is T7, Abp1 SH3 (ABP1_YEAST), P15891.
T7 chain: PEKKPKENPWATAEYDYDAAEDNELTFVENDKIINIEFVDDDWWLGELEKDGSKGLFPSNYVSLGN

Turning to NIFQKQLPKMPKEY [YGR252W 122-135], the normalised SPOT signal, Boehringer light units (BLU); mean over the file's lines of this peptide in test [1] was 646; in test [2], 203; in test [3] it was 276; in test [4], 555; in test [5], 16700; in test [6], 392. This molecule gave a normalised SPOT signal, Boehringer light units (BLU); mean over the file's lines of this peptide in test [7] of 4960.
Consider TIEARVHPEPPNKP [YDR330W 403-416], for which the normalised SPOT signal, Boehringer light units (BLU); mean over the file's lines of this peptide is 36.2 in test [8]; 0 in test [1]; 20.8 in test [2]; 375 in test [3]; 26.6 in test [4]; 32.7 in test [5]. Moreover, the normalised SPOT signal, Boehringer light units (BLU); mean over the file's lines of this peptide in test [6] stood at 44.2; in test [7], 1.
For the molecule NGMPRRIPDYPDAF [Q0045 434-447], the normalised SPOT signal, Boehringer light units (BLU); mean over the file's lines of this peptide in test [1] was 404; in test [2], 318; in test [3] it was 223; in test [4], 338; in test [5], 28.9; in test [6], 1300. In addition, the normalised SPOT signal, Boehringer light units (BLU); mean over the file's lines of this peptide in test [7] came out at 858.
As to NFPQRMMPPPPGLV [YKL204W 475-488], the normalised SPOT signal, Boehringer light units (BLU); mean over the file's lines of this peptide amounted to 228 in test [1]; 28.4 in test [2]; 618 in test [3]; 67.9 in test [4]; 74.5 in test [5]; 679 in test [6]. The normalised SPOT signal, Boehringer light units (BLU); mean over the file's lines of this peptide in test [7] was 95.9.
Take VKPTKLEPENPQKP [YFL054C 234-247]: the normalised SPOT signal, Boehringer light units (BLU); mean over the file's lines of this peptide came out at 42.5 in test [8]; 49.7 in test [1]; 8.7 in test [2]; 91.3 in test [3]; 28 in test [4]; 23.8 in test [5]. In addition, the normalised SPOT signal, Boehringer light units (BLU); mean over the file's lines of this peptide in test [6] was found to be 17; in test [7], 22.4.
Regarding NGTWKYNPTVPNEL [YPR151C 143-156], the normalised SPOT signal, Boehringer light units (BLU); mean over the file's lines of this peptide in test [1] worked out at 72.4; in test [2], 24.2; in test [3], 173; in test [4] it was 87.9; in test [5], 3.7; in test [6], 381. Moreover, the normalised SPOT signal, Boehringer light units (BLU); mean over the file's lines of this peptide in test [7] turned out to be 22.7.
Regarding SKDKKTKPTPPPKP [YNL020C 602-615], the normalised SPOT signal, Boehringer light units (BLU); mean over the file's lines of this peptide in test [8] amounted to 77200; in test [1], 353; in test [2], 40.8; in test [3], 180; in test [4] it was 71.4; in test [5], 331. In addition, the normalised SPOT signal, Boehringer light units (BLU); mean over the file's lines of this peptide came to 211 in test [6] and 22.7 in test [7].
For the molecule NGKDKSRPPRPPPK [YIL095W 742-755], the normalised SPOT signal, Boehringer light units (BLU); mean over the file's lines of this peptide in test [1] is 664; in test [2], 31.9; in test [3], 2620; in test [4] it was 127; in test [5] it was 2640; in test [6], 12900. Also, the normalised SPOT signal, Boehringer light units (BLU); mean over the file's lines of this peptide in test [7] amounted to 162.
For the molecule RPKRRAPPPVPKKP [YIR003W 383-396], the normalised SPOT signal, Boehringer light units (BLU); mean over the file's lines of this peptide in test [8] turned out to be 80000; in test [1], 1170; in test [2], 26.1; in test [3] it was 67400; in test [4], 1050; in test [5], 5190. In addition, the normalised SPOT signal, Boehringer light units (BLU); mean over the file's lines of this peptide was 6360 in test [6] and 114 in test [7].
Turning to VASSRTEPSTPSRP [YJL095W 1074-1087], the normalised SPOT signal, Boehringer light units (BLU); mean over the file's lines of this peptide in test [8] came to 184; in test [1] it was 120; in test [2], 10.5; in test [3] it was 178; in test [4] it was 76.3; in test [5], 62.9. In addition, the normalised SPOT signal, Boehringer light units (BLU); mean over the file's lines of this peptide turned out to be 3610 in test [6] and 602 in test [7].
